# Reference: patent US9056102B2, “VEGF-activated trail ligands” (The Regents of the University of California, priority 2005, dated 2015)
# “Also recorded” adds a separate entry of the source.
# B1: R1[D2]FasL: Second domain of human VEGFR1 (amino acids 129 to 230) fused via ARGTS linker to hFasL amino acids 139 to 281 (protein)
# chain: MSALLILALVGAAVADYKDDDDKLAAASDTGRPFVEMYSEIPEIIHMTEGRELVIPCRVTSPNITVTLKKFPLDTLIPDGKRIIWDSRKGFIISNATYKEIGLLTCEATVNGHLYKTNYLTHRQTNTIIARGTSEKKELRKVAHLTGKSNSRSMPLEWEDTYGIVLLSGVKYKKGGLVINETGLYFVYSKVYFRGQSCNNLPLSHKVYMRNSKYPQDLVMMEGKMMSYCTTGQMWARSSYLGAVFNLTSADHLYVNVSELSLVNFEESQTFFGLYKL
# modifications: FLAG tag, preprotrypsin leader
# B2: FlkFasL: Fusion of mouse Flk-1 (VEGFR-2) signal sequence and Ig-like domains 1-3, linker, human FasL amino acids 139-281; SEQ ID NO:22 (protein)
# chain: MESKALLAVALWFCVETRAASVGLPGDFLHPPKLSTQKDILTILANTTLQITCRGQRDLDWLWPNAQRDSEERVLVTECGGGDSIFCKTLTIPRVVGNDTGAYKCSYRDVDIASTVYVYVRDYRSPFIASVSDQHGIVYITENKNKTVVIPCRGSISNLNVSLCARYPEKRFVPDGNRISWDSEIGFTLPSYMISYAGMVFCEAKINDETYQSIMYIVVVVGYRIYDVILSPPHEIELSAGEKLVLNCTARTELNVGLDFTWHSPPSKSHHKKIVNRDVKPFPGTVAKMFLSTLTIESVTKSDQGEYTCVASSGRMIKRNRTFVRVHTKPFIAFGSARGTSEKKELRKVAHLTGKSNSRSMPLEWEDTYGIVLLSGVKYKKGGLVINETGLYFVYSKVYFRGQSCNNLPLSHKVYMRNSKYPQDLVMMEGKMMSYCTTGQMWARSSYLGAVFNLTSADHLYVNVSELSLVNFEESQTFFGLYKL
# Legend:
# [1] = system: U87MG human glioblastoma cells; assay: Potentiation of R2FasL by chemotherapeutic agents, resazurin cell viability assay; type: cell-based; conditions: 72 hours drug (Bis VIII 1 μM, camptothecin 20 nM, etoposide 5 μM), then R2FasL 10 μL/well for 40 hours
# Method: U87MG human glioblastoma cells were plated in 96-well plates in 100 μL of complete medium with 10% fetal calf serum at 25,000 cells/well. Forty-eight hours later cells were treated with either bisindolylmaleimide VIII (Bis VIII, final concentration 1 μM), camptothecin (final concentration 20 nM), etoposide (final concentration 5 μM), or DMSO vehicle (1 μL/well). Bis VIII, camptothecin, and etoposide (all from Biomol) were dissolved in DMSO and added at 1 μL/well. After 72 hours of drug exposure, cells were treated with FLAG antibody affinity-purified R2FasL solution (10 μL/well), and incubated for an additional 40 hours. Cell viability and cytotoxicity were assayed using the resazurin assay and the LDG release assay, respectively, as described above.
# [2] = system: Jurkat E6.1 human T cells; assay: Jurkat cell viability, resazurin (AlamarBlue) assay; type: cell-based
# Method: Conditioned medium (0.001, 0.01, 0.1, 1, or 10 μL) from Cos7 cells transfected with pFLAG/R1[D2]FasL vector was added in the absence or presence of rhVEGF-165 (final concentration 2 nM). Twenty-two hours later cell viability was assayed using the resazurin assay (AlamarBlue reagent from BioSource). Conversion of AlamarBlue substrate to product by viable cells was determined by adding 20 μL of AlamarBlue to each well and measuring absorbance at 540 nm and […]. Calculation of % conversion of substrate to product was performed according to the manufacturer's protocol.
# To investigate which growth factors activate R1[D2]FasL the following experiment was performed. […] All growth factors were used at a final concentration of 10 nM, and were from Peprotech or R&D Systems. Nineteen hours later cell viability was assayed using the resazurin assay as described above.
# In a similar experiment, the concentration of the growth factors tested was varied. […] Conditioned medium from Cos7 cells transfected with either pFLAG/R2FasL vector or empty pFLAG vector was added (1 μL/well), in the absence or presence of rhVEGF-165 or rmVEGF-165 at the final concentrations of 0.001, 0.01, 0.1, 1, and 10 nM. Eighteen hours later cell viability was assayed using the resazurin assay as described herein.
# To determine the ED50 for hVEGF-165 on R1[D2]FasL the following experiment was performed. […] Conditioned medium from Cos7 cells transfected with pFLAG/R1[D2]FasL vector was added (2 μL/well), in the absence or presence of rhVEGF-165 at 0, 0.01, 0.1, 1, 10, 100, 1,000, or 10,000 nM. Nineteen hours later cell viability was assayed using the resazurin assay as described above.
# In a similar experiment the ED50 for hVEGF-165 on R2FasL was determined. […] Conditioned medium from Cos7 cells transfected with pFLAG/R2FasL vector was added in the volumes indicated, in the absence or presence of rhVEGF-165 at the final concentrations of […], 0.2 and 2 nM. Eighteen hours later cell viability was assayed using the resazurin assay. The ED50 for rhVEGF-165 was between 20 pM and 200 pM (FIG. 21B).
# Jurkat cells [3] = assay: Jurkat cell killing, viable cell counting after trypan blue staining; type: cell-based, human
# Method: (§1) Apoptosis and cytotoxicity was assayed by three assays: cell counting, FACS analysis of Annexin V positive cells, and LDH (lactate dehydrogenase) release. For cell counting of Jurkat cells, 100 uL of cell suspension was mixed with an equal volume of Trypan blue stain (0.4%), and kept at room temperature for 2 minutes. Live cells were counted using a hemocytometer in triplicate. Mean number of cells/visual field and SEM were calculated using InStat statistical software. For FACS analysis, the Annexin-V-Fluos kit from Roche was used according to the manufacturer's protocol. […] The percent of the cell population that was apototic (Annexin-V-positive and propidium iodide-negative) was determined. […] 25 μL of supernatant in triplicate was mixed with LDH detection reagent, and LDH activity quantified by measuring absorbance at 492 nm. Mean and SEM was calculated using InStat statistical software.
# Jurkat cells were plated in 24-well plates (500,000 cells in 500 μl/well) and were treated with increasing volumes of conditioned medium obtained from Cos-7 cells transfected either with either control plasmid pSV/Neo or plasmid pBJ/FlkFasL. […] Thirty-two hours later viable cells were counted after trypan blue staining. […]
# [4] = system: T-47D human breast cancer cells; assay: LDH release cytotoxicity assay in breast cancer cells; type: cell-based
# Method: Apoptosis and cytotoxicity was assayed by three assays: cell counting, FACS analysis of Annexin V positive cells, and LDH (lactate dehydrogenase) release. For cell counting of Jurkat cells, 100 uL of cell suspension was mixed with an equal volume of Trypan blue stain (0.4%), and kept at room temperature for 2 minutes. Live cells were counted using a hemocytometer in triplicate. Mean number of cells/visual field and SEM were calculated using InStat statistical software. For FACS analysis, the Annexin-V-Fluos kit from Roche was used according to the manufacturer's protocol. Briefly, after treatment with FlkFasL or control conditioned medium±VEGF-165 (2 nM, from Peprotech), Jurkat cells were pelleted and resuspended in 100 μL of Annexin-V-Fluos labeling solution (FITC-Annexin V plus propidium iodide) for 15 minutes at room temperature. FACS analysis was performed on a Becton Dickinson FACSCalibur™ using CellQuest Software, with gating to distinguish Annexin V-positive (apoptotic) versus negative cells, and propidium iodide-positive (i.e. necrotic) versus negative cells. The percent of the cell population that was apototic (Annexin-V-positive and propidium iodide-negative) was determined. […] 25 μL of supernatant in triplicate was mixed with LDH detection reagent, and LDH activity quantified by measuring absorbance at 492 nm. Mean and SEM was calculated using InStat statistical software. […]
# [5] = system: T-47D human breast cancer cells; assay: Cell death in breast cancer cells, photographed 24 hours after treatment; type: cell-based; conditions: 25 μL conditioned medium plus 2 nM VEGF-165, 24 hours
# Method: T-47D human breast cancer cells were plated in 24-well plates (500,000 cells in 500 μl/well) and grown to confluence. Cells were treated with 25 μL/well of conditioned medium from Cos-7 cells transfected either with control plasmid pSV/Neo or plasmid FlkFasL. Cells were also treated with 2 nM VEGF-165 or without. Cells were photographed 24 hours after treatment.
# Jurkat cells [6] = assay: Induction of apoptosis by FACS analysis of Annexin V-positive/propidium iodide-negative cells; type: cell-based, human
# Method: as §1
# Jurkat cells were plated in 24-well plates (500,000 cells in 500 μl/well) and were treated with either 1 μL/well or 5 μL/well of conditioned medium obtained from Cos-7 cells transfected either with control plasmid pSV/Neo or plasmid pBJ/FlkFasL. […] Induction of apoptosis was assessed by FACS analysis of FITC-Annexin V-positive/propidium-iodide negative cells.
molecule,measurement,setting,value
"Cn1cc(C2=C(c3cn(CCCN)c4ccccc34)C(=O)NC2=O)c2ccccc21 [BisVIII, bisindolylmaleimide VIII]",potentiation of R2FasL apoptotic activity (cell viability),[1],Potentiation of R2FasL apoptotic activity
COc1cc([C@@H]2c3cc4c(cc3[C@@H](O[C@@H]3O[C@@H]5CO[C@@H](C)O[C@H]5[C@H](O)[C@H]3O)[C@H]3COC(=O)[C@H]23)OCO4)cc(OC)c1O [etoposide],potentiation of R2FasL apoptotic activity (cell viability),[1],Potentiation of R2FasL apoptotic activity
B1,induction of apoptosis (cell viability),"[2]; 0.001-10 μL conditioned medium, absence or presence of 2 nM rhVEGF-165, 22 hours",induces apoptosis in a VEGF-dependent manner
same,activation by growth factors (cell viability),"[2]; 2 μL/well conditioned medium, rhVEGF-165, rmVEGF-164, rhVEGF-121, rhVEGF-165/rhPlGF-129 heterodimer, rhPlGF-129, each 10 nM, 19 hours",activated by all growth factors tested
B2,killing of Jurkat cells as function of VEGF amount,"Jurkat cells [3]; 25 μL/well conditioned medium, varying amounts of VEGF-165, 24 hours",dependent on the amount of VEGF
same,killing of Jurkat cells (viable cells per hemocytometer field),"Jurkat cells [3]; increasing volumes of Cos-7 conditioned medium, with or without 2 nM VEGF-165, 32 hours",killing of Jurkat cells by FlkFasL in a VEGF-dependent manner
same,cytotoxicity (LDH release) with exogenous VEGF,"[4]; 25 μL conditioned medium plus 2 nM VEGF-165, 48 hours",drastic increase in cytotoxicity
same,"cytotoxicity (LDH release), endogenous VEGF only","[4]; 25 μL conditioned medium, no exogenous VEGF, 48 hours",induced cytotoxicity
same,cell death with exogenous VEGF,[5],drastic increase in cell death; also recorded: drastically increased cell death
same,induction of apoptosis (Annexin V-positive/propidium iodide-negative cells),"Jurkat cells [6]; 1 or 5 μL conditioned medium, with or without 2 nM VEGF-165, 60 minutes",induction of apoptosis by FlkFasL in a VEGF-dependent manner
same,induction of apoptosis in the absence of VEGF,Jurkat cells [6]; conditioned medium in the absence of VEGF,did not increase apoptotic induction
